From patent publication US20140274782A1, “AFFINITY REAGENTS AND METHODS FOR DETECTION, PURIFICATION, AND PROTEOMIC ANALYSIS OF METHYLATED PROTEINS” (The Board of Trustees of the Leland Stanford Junior …, priority 2013, published 2014)
One block for each molecule: values may come before it.

What was measured:
3×MBT domain of L3MBTL1 = experiment: Triple SILAC pull-down, 3xMBT/3xMBTD355N ratio (cytoplasmic, nuclear and chromatin fractions of 293T cells); type: binding, human; settings: SILAC ratio; for Protein Ratios 3xMBT/D355N: pull-down by 3xMBT vs 3xMBTD355N, 293T cells;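 as to all read-outs here: proteins quantified with MaxQuant, requiring at least two unique peptides and quantification in both label directions, normalized to the mean of proteins from a digested loading control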
G9a and GLP = target: T1, G9a and GLP (Homo sapiens, UniProt Q96KQ7+Q9H9B1); experiment: Triple SILAC pull-down after UNC0638 treatment of 293T cells, DMSO/UNC0638 ratio of protein captured by 3×MBT; type: cell-based; set-up: endogenous in cells; host or cells: HEK 293T; settings: for Protein Ratios DMSO/UNC0638: SILAC ratio of protein captured by 3xMBT, 293T cells treated 24 hours with UNC0638 at 2.5 μM or DMSO;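 as to all read-outs here: mass spectrometry (Q-Exactive) SILAC quantitation, DMSO/UNC0638 ratio computed after subtracting 3×MBTD355N mutant pull-down background, only proteins with at least twofold 3×MBT over mutant signal considered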
T1 sequence (Q96KQ7 2-1210 limits assumed): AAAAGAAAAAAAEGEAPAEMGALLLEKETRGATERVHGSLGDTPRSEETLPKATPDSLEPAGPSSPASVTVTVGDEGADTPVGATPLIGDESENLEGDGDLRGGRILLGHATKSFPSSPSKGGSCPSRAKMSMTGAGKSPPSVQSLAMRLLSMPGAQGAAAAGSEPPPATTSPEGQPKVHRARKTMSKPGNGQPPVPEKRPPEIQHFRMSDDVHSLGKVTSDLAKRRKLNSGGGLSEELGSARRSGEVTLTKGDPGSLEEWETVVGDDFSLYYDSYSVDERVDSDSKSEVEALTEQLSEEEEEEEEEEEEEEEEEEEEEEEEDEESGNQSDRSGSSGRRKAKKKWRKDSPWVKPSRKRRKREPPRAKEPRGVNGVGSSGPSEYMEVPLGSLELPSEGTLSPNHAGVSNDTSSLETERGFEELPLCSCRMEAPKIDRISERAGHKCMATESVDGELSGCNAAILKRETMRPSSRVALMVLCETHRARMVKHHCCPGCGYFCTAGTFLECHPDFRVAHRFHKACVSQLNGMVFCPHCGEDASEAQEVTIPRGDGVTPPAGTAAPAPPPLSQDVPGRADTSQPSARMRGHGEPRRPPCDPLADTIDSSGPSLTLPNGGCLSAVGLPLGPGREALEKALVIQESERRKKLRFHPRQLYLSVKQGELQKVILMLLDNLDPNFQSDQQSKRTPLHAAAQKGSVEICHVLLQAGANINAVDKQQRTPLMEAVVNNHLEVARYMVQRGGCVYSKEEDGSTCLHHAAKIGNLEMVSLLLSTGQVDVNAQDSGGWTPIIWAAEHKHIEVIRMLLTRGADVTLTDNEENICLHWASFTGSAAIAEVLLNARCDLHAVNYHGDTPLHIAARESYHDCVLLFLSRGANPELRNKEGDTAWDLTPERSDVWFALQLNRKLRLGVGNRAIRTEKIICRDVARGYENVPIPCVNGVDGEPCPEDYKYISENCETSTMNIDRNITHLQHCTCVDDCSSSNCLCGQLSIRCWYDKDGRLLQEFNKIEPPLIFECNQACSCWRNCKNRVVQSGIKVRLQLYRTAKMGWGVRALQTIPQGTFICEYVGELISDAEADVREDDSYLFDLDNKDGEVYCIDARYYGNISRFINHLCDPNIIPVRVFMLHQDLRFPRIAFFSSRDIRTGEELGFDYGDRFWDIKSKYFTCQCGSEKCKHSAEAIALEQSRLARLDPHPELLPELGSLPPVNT
T1 sequence (Q9H9B1 2-1298 limits assumed): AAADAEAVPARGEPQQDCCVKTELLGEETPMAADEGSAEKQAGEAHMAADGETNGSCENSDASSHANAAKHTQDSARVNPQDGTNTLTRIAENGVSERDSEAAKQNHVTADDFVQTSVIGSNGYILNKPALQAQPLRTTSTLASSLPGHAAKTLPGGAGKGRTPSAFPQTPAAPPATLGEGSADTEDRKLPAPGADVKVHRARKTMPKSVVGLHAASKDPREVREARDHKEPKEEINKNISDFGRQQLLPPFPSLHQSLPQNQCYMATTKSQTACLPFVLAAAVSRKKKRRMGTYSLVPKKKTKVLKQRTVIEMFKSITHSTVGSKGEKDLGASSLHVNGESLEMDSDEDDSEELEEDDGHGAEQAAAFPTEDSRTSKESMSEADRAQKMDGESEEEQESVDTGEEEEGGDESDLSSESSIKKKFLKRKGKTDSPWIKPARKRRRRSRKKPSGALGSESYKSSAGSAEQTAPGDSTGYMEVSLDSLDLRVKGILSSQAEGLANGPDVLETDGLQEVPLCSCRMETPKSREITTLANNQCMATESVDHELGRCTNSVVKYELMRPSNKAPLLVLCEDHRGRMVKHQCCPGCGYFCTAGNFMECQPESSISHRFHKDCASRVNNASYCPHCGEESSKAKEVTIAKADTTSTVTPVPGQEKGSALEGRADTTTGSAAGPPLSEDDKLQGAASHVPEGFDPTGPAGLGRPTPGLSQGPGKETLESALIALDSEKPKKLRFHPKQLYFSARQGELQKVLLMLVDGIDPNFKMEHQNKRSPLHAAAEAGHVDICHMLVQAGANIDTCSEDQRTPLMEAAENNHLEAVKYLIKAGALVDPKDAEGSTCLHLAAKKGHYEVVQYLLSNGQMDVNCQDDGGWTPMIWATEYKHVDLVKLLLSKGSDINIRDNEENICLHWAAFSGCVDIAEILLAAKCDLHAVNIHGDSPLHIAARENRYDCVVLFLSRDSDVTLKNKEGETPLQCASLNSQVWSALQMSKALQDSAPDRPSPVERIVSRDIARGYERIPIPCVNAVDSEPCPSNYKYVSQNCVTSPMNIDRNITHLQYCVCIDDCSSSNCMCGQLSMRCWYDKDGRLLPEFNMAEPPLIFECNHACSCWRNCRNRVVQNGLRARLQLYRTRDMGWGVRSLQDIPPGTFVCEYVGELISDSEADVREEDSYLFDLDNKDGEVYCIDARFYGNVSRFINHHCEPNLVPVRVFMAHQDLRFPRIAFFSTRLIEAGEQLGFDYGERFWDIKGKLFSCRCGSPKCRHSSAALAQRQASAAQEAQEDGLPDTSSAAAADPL

B3: Peptidyl-prolyl cis-trans isomerase-like 4 (protein, UniProt Q8WUA2 1-492, looked up)
Peptidyl-prolyl cis-trans …: MAVLLETTLGDVVIDLYTEERPRACLNFLKLCKIKYYNYCLIHNVQRDFIIQTGDPTGTGRGGESIFGQLYGDQASFFEAEKVPRIKHKKKGTVSMVNNGSDQHGSQFLITTGENLDYLDGVHTVFGEVTEGMDIIKKINETFVDKDFVPYQDIRINHTVILDDPFDDPPDLLIPDRSPEPTREQLDSGRIGADEEIDDFKGRSAEEVEEIKAEKEAKTQAILLEMVGDLPDADIKPPENVLFVCKLNPVTTDEDLEIIFSRFGPIRSCEVIRDWKTGESLCYAFIEFEKEEDCEKAFFKMDNVLIDDRRIHVDFSQSVAKVKWKGKGGKYTKSDFKEYEKEQDKPPNLVLKDKVKPKQDTKYDLILDEQAEDSKSSHSHTSKKHKKKTHHCSEEKEDEDYMPIKNTNQDIYREMGFGHYEEEESCWEKQKSEKRDRTQNRSRSRSRERDGHYSNSHKSKYQTDLYERERSKKRDRSRSPKKSKDKEKSKYR
Protein Ratios 3xMBT/D355N (3×MBT domain of L3MBTL1): 4.0
Protein Ratios DMSO/UNC0638 (G9a and GLP): 1.4

B5: RNA-binding protein 15 (protein)
chain: MRTAGRDPVPRRSPRWRRAVPLCETSAGRRVTQLRGDDLRRPATMKGKERSPVKAKRSRGGEDSTSRGERSKKLGGSGGSNGSSSGKTDSGGGSRRSLHLDKSSSRGGSREYDTGGGSSSSRLHSYSSPSTKNSSGGGESRSSSRGGGGESRSSGAASSAPGGGDGAEYKTLKISELGSQLSDEAVEDGLFHEFKRFGDVSVKISHLSGSGSGDERVAFVNFRRPEDARAAKHARGRLVLYDRPLKIEAVYVSRRRSRSPLDKDTYPPSASVVGASVGGHRHPPGGGGGQRSLSPGGAALGYRDYRLQQLALGRLPPPPPPPLPRDLERERDYPFYERVRPAYSLEPRVGAGAGAAPFREVDEISPEDDQRANRTLFLGNLDITVTESDLRRAFDRFGVITEVDIKRPSRGQTSTYGFLKFENLDMSHRAKLAMSGKIIIRNPIKIGYGKATPTTRLWVGGLGPWVPLAALAREFDRFGTIRTIDYRKGDSWAYIQYESLDAAHAAWTHMRGFPLGGPDRRLRVDFADTEHRYQQQYLQPLPLTHYELVTDAFGHRAPDPLRGARDRTPPLLYRDRDRDLYPDSDWVPPPPPVRERSTRTAATSVPAYEPLDSLDRRRDGWSLDRDRGDRDLPSSRDQPRKRRLPEESGGRHLDRSPESDRPRKRHCAPSPDRSPELSSSRDRYNSDNDRSSRLLLERPSPIRDRRGSLEKSQGDKRDRKNSASAERDRKHRTTAPTEGKSPLKKEDRSDGSAPSTSTASSKLKSPSQKQDGGTAPVASASPKLCLAWQGMLLLKNSNFPSNMHLLQGDLQVASSLLVEGSTGGKVAQLKITQRLRLDQPKLDEVTRRIKVAGPNGYAILLAVPGSSDSRSSSSSAASDTATSTQRPLRNLVSYLKQKQAAGVISLPVGGNKDKENTGVLHAFPPCEFSQQFLDSPAKALAKSEEDYLVMIIVRGFGFQIGVRYENKKRENLALTLL
3xMBT/D355N UNC Heavy (3×MBT domain of L3MBTL1; pull-down 3xMBT vs 3xMBTD355N, experiment with UNC0638 in heavy SILAC media): 2.14 log base 2
3xMBT/D355N UNC Light (3×MBT domain of L3MBTL1; pull-down 3xMBT vs 3xMBTD355N, experiment with UNC0638 in light SILAC media): 4.48 log base 2
Protein Ratios 3xMBT/D355N (3×MBT domain of L3MBTL1): 9.9
Relative to UNC0638 UNC Heavy (G9a and GLP; SILAC ratio DMSO/UNC0638 of protein pulled down with 3xMBT, UNC0638 in heavy SILAC media): 1.65 log base 2
Relative to UNC0638 UNC Light (G9a and GLP; SILAC ratio DMSO/UNC0638 of protein pulled down with 3xMBT, UNC0638 in light SILAC media): 0.26 log base 2
Protein Ratios DMSO/UNC0638 (G9a and GLP): 1.9
Relative to UNC0638 Average (G9a and GLP; average of UNC Light and UNC Heavy experiments): 0.96 log base 2
Candidate G9a/GLP target (G9a and GLP; reduced association with 3xMBT after UNC0638 treatment): ✓

Second part, led by results:

Protein Ratios DMSO/UNC0638 (G9a and GLP): 1.6
B1: Hematological and neurological-expressed 1-like protein (protein, UniProt Q9H910 1-190, looked up)
Jupiter microtubule …: MFQVPDSEGGRAGSRAMKPPGGESSNLFGSPEEATPSSRPNRMASNIFGPTEEPQNIPKRTNPPGGKGSGIFDESTPVQTRQHLNPPGGKTSDIFGSPVTATSRLAHPNKPKDHVFLCEGEEPKSDLKAARSIPAGAEPGEKGSARKAGPAKEQEPMPTVDSHEPRLGPRPRSHNKVLNPPGGKSSISFY
Protein Ratios 3xMBT/D355N (3×MBT domain of L3MBTL1): 8.9

Protein Ratios DMSO/UNC0638 (G9a and GLP): 1.5
B2: DDB1- and CUL4-associated factor 7 (protein, UniProt P61962 1-342, looked up)
DDB1- and CUL4-associated …: MSLHGKRKEIYKYEAPWTVYAMNWSVRPDKRFRLALGSFVEEYNNKVQLVGLDEESSEFICRNTFDHPYPTTKLMWIPDTKGVYPDLLATSGDYLRVWRVGETETRLECLLNNNKNSDFCAPLTSFDWNEVDPYLLGTSSIDTTCTIWGLETGQVLGRVNLVSGHVKTQLIAHDKEVYDIAFSRAGGGRDMFASVGADGSVRMFDLRHLEHSTIIYEDPQHHPLLRLCWNKQDPNYLATMAMDGMEVVILDVRVPCTPVARLNNHRACVNGIAWAPHSSCHICTAADDHQALIWDIQQMPRAIEDPILAYTAEGEINNVQWASTQPDWIAICYNNCLEILRV
Protein Ratios 3xMBT/D355N (3×MBT domain of L3MBTL1): 2.8

Protein Ratios DMSO/UNC0638 (G9a and GLP): 1.6
B4: Apoptosis inhibitor 5 (protein, UniProt Q9BZZ5 2-524, looked up)
Apoptosis inhibitor 5: PTVEELYRNYGILADATEQVGQHKDAYQVILDGVKGGTKEKRLAAQFIPKFFKHFPELADSAINAQLDLCEDEDVSIRRQAIKELPQFATGENLPRVADILTQLLQTDDSAEFNLVNNALLSIFKMDAKGTLGGLFSQILQGEDIVRERAIKFLSTKLKTLPDEVLTKEVEELILTESKKVLEDVTGEEFVLFMKILSGLKSLQTVSGRQQLVELVAEQADLEQTFNPSDPDCVDRLLQCTRQAVPLFSKNVHSTRFVTYFCEQVLPNLGTLTTPVEGLDIQLEVLKLLAEMSSFCGDMEKLETNLRKLFDKLLEYMPLPPEEAENGENAGNEEPKLQFSYVECLLYSFHQLGRKLPDFLTAKLNAEKLKDFKIRLQYFARGLQVYIRQLRLALQGKTGEALKTEENKIKVVALKITNNINVLIKDLFHIPPSYKSTVTLSWKPVQKVEIGQKRASEDTTSGSPPKKSSAGPKRDARQIYNPPSGKYSSNLGNFNYEQRGAFRGSRGGRGWGTRGNRSRGRLY
Protein Ratios 3xMBT/D355N (3×MBT domain of L3MBTL1): 8.6
